Experimental data: patent US20120316071A1 (published 2012)
Changes are numbered by the printed parent chain. In names and notes the source's numbering stands.

How the values were obtained:
[1] = biological target: T1, rHuman Erythropoietin R/Fc Chimera, CF (R&D Systems Cat#963-ER) (human, UniProt P19235 25-250); assay: Multispot ECL (MSD) binding screen, antigen spotted on plate; hit = signal/blank >= 4
T1 construct: Bought Fc chimera; also called Epo R/Fc chimera; EPO R/Fc; Fc part of the bought chimera not given
T1 sequence (looked up): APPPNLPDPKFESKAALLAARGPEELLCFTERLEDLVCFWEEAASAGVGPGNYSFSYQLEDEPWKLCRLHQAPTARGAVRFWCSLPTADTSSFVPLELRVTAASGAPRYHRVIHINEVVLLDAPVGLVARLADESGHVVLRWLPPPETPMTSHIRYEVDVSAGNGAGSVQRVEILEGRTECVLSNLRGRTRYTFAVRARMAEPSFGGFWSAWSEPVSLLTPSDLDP

[2] = biological target: T2, rHuman EGF R/Fc Chimera, CF (R&D Systems Cat#344-ER) (human, UniProt P00533 25-645); assay: ECL multispot (MSD), antigen spotted, 10 nM Fab; blank spot of this row 271
T2 construct: Bought recombinant protein; also called epidermal growth factor receptor; Fc part of the bought chimera not given

[3] = biological target: T3, rHuman Erythropoietin R/Fc Chimera, CF (R&D Systems Cat#963-ER) (human, UniProt P19235 25-250); assay: as above
T3 construct: Bought recombinant protein; also called EPO R; EPO R/Fc; Fc part of the bought chimera not given
T3 sequence (looked up): T1 sequence (looked up)

[4] = biological target: T4, rHuman Notch-1/Fc Chimera, CF (R&D Systems Cat#3647-TK) (human, UniProt P46531 19-526); assay: as above
T4 construct: Bought recombinant protein; Fc part of the bought chimera not given

[5] = biological target: T5, rHuman IGF-1 sR, (IGF-1 sR), CF (R&D Systems Cat#391-GR) (human, UniProt P08069 31-932); assay: as above
T5 construct: Bought recombinant soluble receptor; also called insulin-like growth factor-1 soluble receptor

[6] = biological target: T6, rHuman P-Cadherin/Fc Chimera, CF (R&D Systems Cat#861-PC) (human, UniProt P22223 108-654); assay: as above
T6 construct: Bought recombinant protein; Fc part of the bought chimera not given

[7] = biological target: T7, rHuman CD44/Fc Chimera, CF (R&D Systems Cat#3660-CD) (human, UniProt P16070 21-220); assay: as above
T7 construct: Bought recombinant protein; Fc part of the bought chimera not given

[8] = biological target: T8, rHuman ErbB2/Fc Chimera, CF (R&D Systems Cat#1129-ER) (human, UniProt P04626 23-652); assay: as above
T8 construct: Bought recombinant protein; also called human epidermal growth factor 2 receptor; Fc part of the bought chimera not given

[9] = biological target: T9, rHuman HGF R/c-MET/Fc Chimera, CF (R&D Systems Cat#358-MT/CF) (human, UniProt P08581 25-932); assay: as above
T9 construct: Bought recombinant protein; also called HGF R/Fc; hepatocyte growth factor receptor; Fc part of the bought chimera not given

[10] = biological target: T2, rHuman EGF R/Fc Chimera, CF (R&D …); assay: ECL multispot (MSD), antigen spotted, 10 nM Fab; blank spot of this row 239
[11] = biological target: T3, rHuman Erythropoietin R/Fc Chimera, CF …; assay: as above
[12] = biological target: T4, rHuman Notch-1/Fc Chimera, CF (R&D …); assay: as above
[13] = biological target: T5, rHuman IGF-1 sR, (IGF-1 sR), CF (R&D …); assay: as above
[14] = biological target: T6, rHuman P-Cadherin/Fc Chimera, CF (R&D …); assay: as above
[15] = biological target: T7, rHuman CD44/Fc Chimera, CF (R&D Systems …); assay: as above
[16] = biological target: T8, rHuman ErbB2/Fc Chimera, CF (R&D …); assay: as above
[17] = biological target: T9, rHuman HGF R/c-MET/Fc Chimera, CF (R&D …); assay: as above
[18] = biological target: T2, rHuman EGF R/Fc Chimera, CF (R&D …); assay: ECL multispot (MSD), antigen spotted, 10 nM Fab; blank spot of this row 204
[19] = biological target: T3, rHuman Erythropoietin R/Fc Chimera, CF …; assay: as above
[20] = biological target: T4, rHuman Notch-1/Fc Chimera, CF (R&D …); assay: as above
[21] = biological target: T5, rHuman IGF-1 sR, (IGF-1 sR), CF (R&D …); assay: as above
[22] = biological target: T6, rHuman P-Cadherin/Fc Chimera, CF (R&D …); assay: as above
[23] = biological target: T7, rHuman CD44/Fc Chimera, CF (R&D Systems …); assay: as above
[24] = biological target: T8, rHuman ErbB2/Fc Chimera, CF (R&D …); assay: as above
[25] = biological target: T9, rHuman HGF R/c-MET/Fc Chimera, CF (R&D …); assay: as above
[26] = biological target: T2, rHuman EGF R/Fc Chimera, CF (R&D …); assay: ECL multispot (MSD), antigen spotted, 10 nM Fab; blank spot of this row 248
[27] = biological target: T3, rHuman Erythropoietin R/Fc Chimera, CF …; assay: as above
[28] = biological target: T4, rHuman Notch-1/Fc Chimera, CF (R&D …); assay: as above
[29] = biological target: T5, rHuman IGF-1 sR, (IGF-1 sR), CF (R&D …); assay: as above
[30] = biological target: T6, rHuman P-Cadherin/Fc Chimera, CF (R&D …); assay: as above
[31] = biological target: T7, rHuman CD44/Fc Chimera, CF (R&D Systems …); assay: as above
[32] = biological target: T8, rHuman ErbB2/Fc Chimera, CF (R&D …); assay: as above
[33] = biological target: T9, rHuman HGF R/c-MET/Fc Chimera, CF (R&D …); assay: as above

T9 sequence (P08581 25-932, change not shown): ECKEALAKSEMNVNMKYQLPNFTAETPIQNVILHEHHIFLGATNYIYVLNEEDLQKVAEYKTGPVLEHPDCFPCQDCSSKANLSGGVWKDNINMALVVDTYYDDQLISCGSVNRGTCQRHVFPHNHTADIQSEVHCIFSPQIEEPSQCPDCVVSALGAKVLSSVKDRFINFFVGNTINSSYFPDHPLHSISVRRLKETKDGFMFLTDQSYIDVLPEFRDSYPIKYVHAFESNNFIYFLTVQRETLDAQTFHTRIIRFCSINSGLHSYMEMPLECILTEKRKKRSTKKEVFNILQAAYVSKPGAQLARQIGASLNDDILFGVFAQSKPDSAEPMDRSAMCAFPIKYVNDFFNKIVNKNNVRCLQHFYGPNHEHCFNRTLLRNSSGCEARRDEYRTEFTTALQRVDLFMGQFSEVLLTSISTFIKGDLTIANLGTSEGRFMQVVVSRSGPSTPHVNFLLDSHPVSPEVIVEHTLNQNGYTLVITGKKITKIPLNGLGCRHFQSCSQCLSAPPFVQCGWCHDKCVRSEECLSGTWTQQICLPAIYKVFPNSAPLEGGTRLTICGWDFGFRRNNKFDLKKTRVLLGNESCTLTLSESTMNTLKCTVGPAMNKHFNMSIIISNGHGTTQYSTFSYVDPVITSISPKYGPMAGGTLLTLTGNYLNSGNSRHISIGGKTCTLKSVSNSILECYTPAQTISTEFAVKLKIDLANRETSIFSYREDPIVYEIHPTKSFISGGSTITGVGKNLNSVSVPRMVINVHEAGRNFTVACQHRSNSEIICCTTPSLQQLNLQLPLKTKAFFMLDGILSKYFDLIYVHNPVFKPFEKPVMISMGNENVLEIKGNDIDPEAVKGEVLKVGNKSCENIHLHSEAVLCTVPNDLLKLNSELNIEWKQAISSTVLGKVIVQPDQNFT

B1: Fab VH1-46_IGHD7-27*01_IGHJ2*01 & A27_IGKJ1*01 (Fab, V domains shown)
VH: QVQLVQSGAEVKKPGASVKVSCKASGYTFTSYYMHWVRQAPGQGLEWMGIINPSGGSTSYAQKFQGRVTMTRDTSTSTVYMELSSLRSEDTAVYYCARANWGYWYFDLWGRGTLVTVSS
VL: not shown
notes: Fab; expressed in E. coli from Plasmid A (CH1, His6 and Flag tags) and Plasmid C (kappa CL)
[1]
  binding result: binds

B2: Fab VH1-46_IGHD6-6*01_IGHJ1*01 S102A/S103P/S104F (APF) & L6_IGKJ1*01 (Fab, V domains shown)
VH: QVQLVQSGAEVKKPGASVKVSCKASGYTFTSYYMHWVRQAPGQGLEWMGIINPSGGSTSYAQKFQGRVTMTRDTSTSTVYMELSSLRSEDTAVYYCAREEYAPFSAEYFQHWGQGTLVTVSS
VL: not shown
notes: Tested as Fab made in E. coli; The heavy chain was cloned in Plasmid A (CH1 constant region, His6 and Flag tags); The kappa light chain was cloned in Plasmid C (kappa CL); also called APF triple mutant; H:APF & L:wt
[2]
  ECL signal: 272
[3]
  ECL signal: 304
[4]
  ECL signal: 257
[5]
  ECL signal: 241
[6]
  ECL signal: 297
[7]
  ECL signal: 189
[8]
  ECL signal: 330
[9]
  ECL signal: 306
[10]
  ECL signal: 216
[11]
  ECL signal: 285
[12]
  ECL signal: 130
[13]
  ECL signal: 174
[14]
  ECL signal: 256
[15]
  ECL signal: 236
[16]
  ECL signal: 340
[17]
  ECL signal: 171
[18]
  ECL signal: 237
[19]
  ECL signal: 329
[20]
  ECL signal: 334
[21]
  ECL signal: 197
[22]
  ECL signal: 208
[23]
  ECL signal: 96
[24]
  ECL signal: 157
[25]
  ECL signal: 272

B3: Fab VH1-46_IGHD6-6*01_IGHJ1*01 S102A/S103P/S104F G55D & L6_IGKJ1*01 (Fab, V domains shown)
VH: B2 VH with G55D
VL: not shown
notes: Tested as Fab (CH1 with His6 and Flag tags, kappa CL); also called APF G55D
[26]
  ECL signal: 272
[27]
  ECL signal: 329
[28]
  ECL signal: 302
[29]
  ECL signal: 191
[30]
  ECL signal: 243
[31]
  ECL signal: 173
[32]
  ECL signal: 302
[33]
  ECL signal: 268
